From PMC7857400

Molecular target: SARS-CoV-2 spike protein receptor binding domain (RBD) (SARS-CoV-2) (UniProt P0DTC2)

| Substance | IC50 of neutralisation, pseudovirus luciferase assay |
| --- | --- |
| homotrimeric Nb21 (Nb21_(3)) | 1.3 pM |
| homotrimeric Nb20 (Nb20_(3)) | 4.1 pM |
